In assay [1] the target is T1, B7-H6-Fc (extracellular domain of B7-H6, aa 1-267, fused to effector-negative mouse IgG2a Fc) (human, UniProt Q68D85 25-267).
T1 sequence (looked up): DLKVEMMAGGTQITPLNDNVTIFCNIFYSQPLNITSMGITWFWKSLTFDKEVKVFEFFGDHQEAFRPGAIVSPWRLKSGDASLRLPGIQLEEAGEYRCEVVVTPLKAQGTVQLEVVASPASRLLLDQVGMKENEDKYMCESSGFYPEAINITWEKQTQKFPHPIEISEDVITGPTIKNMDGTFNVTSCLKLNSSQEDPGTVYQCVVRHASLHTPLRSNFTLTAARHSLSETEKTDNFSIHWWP
In words: SPR.

The target of assay [2] is T1, B7-H6-Fc (extracellular domain of …). Description: SPR. The source holds these as a separate data set. In general terms: Surface plasmon resonance follows binding to a sensor surface in real time, without labels.

Like-named read-outs stand apart in the source and are kept apart here.

B1: NKp30-hFc (soluble recombinant NKp30 fused to mutated human IgG1) (Fc fusion, UniProt O14931 19-135, looked up)
chain: LWVSQPPEIRTLEGSSAFLPCSFNASQGRLAIGSVTWFRDEVVPGKEVRNGTPEFRGRLAPLASSRFLHDHQAELHIRDVRGHDASIYVCRVEVLGLGVGTGNGTRLVVEKEHPQLG
Take B1: the binding result in assay [1] and in assay [2] was “binds” in each case.

These data come from article PMC2715080 (The Journal of Experimental Medicine, 2009).
